Laboratory results: the supplement of paper PMC10567573

B1: MFF (parent)
chain: DDLTVVDAASLRRQIIKLNRRLQL
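Further: lentivirally expressed fusions sorted by FACS into six bins by GFP to DsRed ratio, PSI derived from sequencing read proportions per bin multiplied by bin number.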

Variants of: B1
Test: protein stability index of a GFP-peptide fusion (GPS, HEK-293T) (PSI 1-6); higher = more stable
Settings: c terminus: a fixed tail appended
With EDLTVVDAASLRRQIIKLNRRLQL the protein stability index was 1.67. In the case of QDLTVVDAASLRRQIIKLNRRLQL, the protein stability index is reported as 3.2. For GDLTVVDAASLRRQIIKLNRRLQL, the protein stability index was 2.17. With SDLTVVDAASLRRQIIKLNRRLQL the protein stability index was 2.28. For WDLTVVDAASLRRQIIKLNRRLQL, the protein stability index was 1.88. In the case of IDLTVVDAASLRRQIIKLNRRLQL, the protein stability index is reported as 2.32. YDLTVVDAASLRRQIIKLNRRLQL gave a protein stability index of 2.81. In the case of KDLTVVDAASLRRQIIKLNRRLQL, the protein stability index is reported as 1.84. In the case of DDLTVVDAASLRRQIIKLHRRLQL, the protein stability index is reported as 1.75. In the case of DDLTVVDAASLRRQIIKLMRRLQL, the protein stability index is reported as 1.74. DDLTVVDAASLRRQIIKLYRRLQL showed a protein stability index of 1.85. DDLTVVDAASLRRQIIKLPRRLQL showed a protein stability index of 2.33. In the case of DDLTVVDAASLRRQIIKLERRLQL, the protein stability index is reported as 3. In the case of DDLTVVDAASLRRQIIKLQRRLQL, the protein stability index is reported as 2.01. Variant DDLTVVDAASLRRQIIKLVRRLQL has a protein stability index of 2.25. Work on DDLTVVDAASLRRQIIKLSRRLQL yielded a protein stability index of 2.38. DDLTVVDAASLRRQIIKLTRRLQL showed a protein stability index of 2.68. Work on DDLTVVDAASLPRQIIKLNRRLQL yielded a protein stability index of 2.51. DDLTVVDAAILRRQIIKLNRRLQL showed a protein stability index of 1.72. Variant DDLTVVDAACLRRQIIKLNRRLQL has a protein stability index of 1.48. DDLTVVDAAALRRQIIKLNRRLQL showed a protein stability index of 1.7. DDLTVVDAAQLRRQIIKLNRRLQL gave a protein stability index of 2.28. DDLTVVDAAVLRRQIIKLNRRLQL showed a protein stability index of 1.64. In the case of DDLTVVDAAYLRRQIIKLNRRLQL, the protein stability index is reported as 1.69. With DDLTVVDAARLRRQIIKLNRRLQL the protein stability index was 2.83. Variant DDLTVVDAATLRRQIIKLNRRLQL has a protein stability index of 1.61. DDLTVVDAASLRRQIITLNRRLQL gave a protein stability index of 2.47. DDLTVVDAASLRRQIIQLNRRLQL gave a protein stability index of 1.57. In the case of DDLTVVDAASLRRQIICLNRRLQL, the protein stability index is reported as 2.44. Variant DDLTVVDAASLRRQIISLNRRLQL has a protein stability index of 2.76. Work on DDLTVVDAASLRRQIIHLNRRLQL yielded a protein stability index of 2.08. For DDLTVVDAASLRRQIIILNRRLQL, the protein stability index was 1.85. DDLTVVDAASLRRQIILLNRRLQL showed a protein stability index of 2.37. In the case of DDLTVVDAASLRRQIIALNRRLQL, the protein stability index is reported as 1.01. With DDLTVVDAASRRRQIIKLNRRLQL the protein stability index was 3.91. In the case of DDLTVVDAASGRRQIIKLNRRLQL, the protein stability index is reported as 3.84. With DDLTVVDAASARRQIIKLNRRLQL the protein stability index was 2.33. For DDLTVVDAASYRRQIIKLNRRLQL, the protein stability index was 2.82. In the case of DDLTVVDAASNRRQIIKLNRRLQL, the protein stability index is reported as 2.59. DDLTVVDAASCRRQIIKLNRRLQL showed a protein stability index of 2.16. With DDLTVVDAASIRRQIIKLNRRLQL the protein stability index was 2.72. In the case of DDLTVVDAASFRRQIIKLNRRLQL, the protein stability index is reported as 2.48. With DDLTVVDAASLRRQDIKLNRRLQL the protein stability index was 3.96. With DDLTVVDAASLRRQAIKLNRRLQL the protein stability index was 2.43. In the case of DDLTVVDAASLRRQFIKLNRRLQL, the protein stability index is reported as 2. With DDLTVVDAASLRRQSIKLNRRLQL the protein stability index was 3.74. Work on DDYTVVDAASLRRQIIKLNRRLQL yielded a protein stability index of 1.96. Variant DDITVVDAASLRRQIIKLNRRLQL has a protein stability index of 1.8. For DDDTVVDAASLRRQIIKLNRRLQL, the protein stability index was 2.58. Variant DDRTVVDAASLRRQIIKLNRRLQL has a protein stability index of 2.58. For DDETVVDAASLRRQIIKLNRRLQL, the protein stability index was 2.56. DDMTVVDAASLRRQIIKLNRRLQL showed a protein stability index of 3.06. For DDHTVVDAASLRRQIIKLNRRLQL, the protein stability index was 2.73. Variant DDLTVVCAASLRRQIIKLNRRLQL has a protein stability index of 1.4. In the case of DDLTVVEAASLRRQIIKLNRRLQL, the protein stability index is reported as 2.04. Work on DDLTVVFAASLRRQIIKLNRRLQL yielded a protein stability index of 1.85. In the case of DDLTVVRAASLRRQIIKLNRRLQL, the protein stability index is reported as 2.93. In the case of DDLTVVNAASLRRQIIKLNRRLQL, the protein stability index is reported as 1.89. With DDLTVVAAASLRRQIIKLNRRLQL the protein stability index was 2.29. Variant DDLTVVDAASLRRNIIKLNRRLQL has a protein stability index of 2.31. With DDLTVVDAASLRRGIIKLNRRLQL the protein stability index was 2.5. With DDLTVVDAASLRRKIIKLNRRLQL the protein stability index was 2.23. With DDLTVVDAASLRRLIIKLNRRLQL the protein stability index was 2.45. Variant DDLTVVDAASLRREIIKLNRRLQL has a protein stability index of 1.78. Work on DDLTVVDAASLRRQINKLNRRLQL yielded a protein stability index of 2.8. Variant DDLTVVDAASLRRQIEKLNRRLQL has a protein stability index of 1.88. Work on DDLTVVDAASLRRQIYKLNRRLQL yielded a protein stability index of 2.97. DDLTVVDAASLRRQIFKLNRRLQL gave a protein stability index of 3.4. Work on DDLTVVDAASLRRQITKLNRRLQL yielded a protein stability index of 1.92. DDLTVVDAASLRRQILKLNRRLQL showed a protein stability index of 2.19.
